Measured values from publication PMC5499601 (Nucleic Acids Research, 2017).

Assays:
Test in all cases: EMSA
BsSpo0J L60E = target: T1, BsSpo0J L60E (UniProt P26497 1-282, L60E)
T1 sequence: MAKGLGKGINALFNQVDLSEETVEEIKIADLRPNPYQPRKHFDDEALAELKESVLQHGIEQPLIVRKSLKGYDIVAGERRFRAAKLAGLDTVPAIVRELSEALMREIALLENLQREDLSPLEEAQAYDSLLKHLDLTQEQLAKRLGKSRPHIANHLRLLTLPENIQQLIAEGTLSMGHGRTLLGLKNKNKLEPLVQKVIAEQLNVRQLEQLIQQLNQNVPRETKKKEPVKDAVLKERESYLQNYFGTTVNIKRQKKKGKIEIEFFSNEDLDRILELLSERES

BsSpo0J R39A = target: T2, BsSpo0J R39A (UniProt P26497 1-282, R39A)
T2 sequence: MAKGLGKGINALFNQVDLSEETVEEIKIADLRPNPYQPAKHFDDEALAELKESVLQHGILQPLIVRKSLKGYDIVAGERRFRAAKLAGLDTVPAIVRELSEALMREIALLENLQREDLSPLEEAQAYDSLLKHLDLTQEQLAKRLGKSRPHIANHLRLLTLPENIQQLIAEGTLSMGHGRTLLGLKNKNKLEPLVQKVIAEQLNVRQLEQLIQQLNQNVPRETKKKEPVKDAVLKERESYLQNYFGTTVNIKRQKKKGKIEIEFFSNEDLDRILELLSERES

BsSpo0J Q61A = target: T3, BsSpo0J Q61A (UniProt P26497 1-282, Q61A)
T3 sequence: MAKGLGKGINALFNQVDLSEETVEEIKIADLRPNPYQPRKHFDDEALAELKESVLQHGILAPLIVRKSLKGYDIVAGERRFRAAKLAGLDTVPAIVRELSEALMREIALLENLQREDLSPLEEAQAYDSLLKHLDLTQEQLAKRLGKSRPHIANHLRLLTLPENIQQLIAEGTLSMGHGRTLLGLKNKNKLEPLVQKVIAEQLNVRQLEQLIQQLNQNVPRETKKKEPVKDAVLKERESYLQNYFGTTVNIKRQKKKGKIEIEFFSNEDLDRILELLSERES

BsSpo0J E52R = target: T4, BsSpo0J E52R (UniProt P26497 1-282, E52R)
T4 sequence: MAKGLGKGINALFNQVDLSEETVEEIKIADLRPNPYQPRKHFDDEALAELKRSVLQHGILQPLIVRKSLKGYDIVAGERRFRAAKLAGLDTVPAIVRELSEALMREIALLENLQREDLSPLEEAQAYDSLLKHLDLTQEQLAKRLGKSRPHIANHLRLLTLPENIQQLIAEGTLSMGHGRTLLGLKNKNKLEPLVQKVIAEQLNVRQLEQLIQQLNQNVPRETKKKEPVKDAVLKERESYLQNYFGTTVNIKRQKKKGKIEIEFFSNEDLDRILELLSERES

BsSpo0J WT = target: T5, BsSpo0J WT (UniProt P26497 1-282)
T5 sequence: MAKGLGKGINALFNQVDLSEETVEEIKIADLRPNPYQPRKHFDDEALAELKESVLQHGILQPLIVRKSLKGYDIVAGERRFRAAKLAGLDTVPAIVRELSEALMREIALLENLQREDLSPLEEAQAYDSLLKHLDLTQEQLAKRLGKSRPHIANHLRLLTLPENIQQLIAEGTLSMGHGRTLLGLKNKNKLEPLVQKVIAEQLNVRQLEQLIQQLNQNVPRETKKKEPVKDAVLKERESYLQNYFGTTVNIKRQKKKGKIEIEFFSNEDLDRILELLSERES

BsSpo0J Q140A = target: T6, BsSpo0J Q140A (UniProt P26497 1-282, Q140A)
T6 sequence: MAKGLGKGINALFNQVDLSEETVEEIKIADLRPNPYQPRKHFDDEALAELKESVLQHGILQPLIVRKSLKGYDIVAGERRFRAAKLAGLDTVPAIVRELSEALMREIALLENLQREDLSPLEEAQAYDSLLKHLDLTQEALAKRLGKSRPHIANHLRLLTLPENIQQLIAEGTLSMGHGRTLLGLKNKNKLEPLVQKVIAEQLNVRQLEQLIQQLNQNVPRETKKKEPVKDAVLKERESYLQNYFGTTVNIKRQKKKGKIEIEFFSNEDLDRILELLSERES

BsSpo0J M104A = target: T7, BsSpo0J M104A (UniProt P26497 1-282, M104A)
T7 sequence: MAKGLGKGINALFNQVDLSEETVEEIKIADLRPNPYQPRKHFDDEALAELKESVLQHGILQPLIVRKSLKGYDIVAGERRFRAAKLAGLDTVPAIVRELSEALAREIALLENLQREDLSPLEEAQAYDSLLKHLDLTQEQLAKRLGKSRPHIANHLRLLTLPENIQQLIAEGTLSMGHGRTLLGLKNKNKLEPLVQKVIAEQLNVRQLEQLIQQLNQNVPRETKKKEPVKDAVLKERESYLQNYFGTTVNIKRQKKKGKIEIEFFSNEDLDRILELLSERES

BsSpo0J H57E = target: T8, BsSpo0J H57E (UniProt P26497 1-282, H57E)
T8 sequence: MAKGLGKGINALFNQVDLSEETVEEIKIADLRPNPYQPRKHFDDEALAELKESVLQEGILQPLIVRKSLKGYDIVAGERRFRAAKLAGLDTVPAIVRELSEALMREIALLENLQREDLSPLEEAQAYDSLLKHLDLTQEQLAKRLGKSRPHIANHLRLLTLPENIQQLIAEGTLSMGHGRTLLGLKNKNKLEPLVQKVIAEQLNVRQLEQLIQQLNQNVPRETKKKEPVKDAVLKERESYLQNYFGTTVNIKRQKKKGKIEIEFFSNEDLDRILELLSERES

BsSpo0J R80A = target: T9, BsSpo0J R80A (UniProt P26497 1-282, R80A)
T9 sequence: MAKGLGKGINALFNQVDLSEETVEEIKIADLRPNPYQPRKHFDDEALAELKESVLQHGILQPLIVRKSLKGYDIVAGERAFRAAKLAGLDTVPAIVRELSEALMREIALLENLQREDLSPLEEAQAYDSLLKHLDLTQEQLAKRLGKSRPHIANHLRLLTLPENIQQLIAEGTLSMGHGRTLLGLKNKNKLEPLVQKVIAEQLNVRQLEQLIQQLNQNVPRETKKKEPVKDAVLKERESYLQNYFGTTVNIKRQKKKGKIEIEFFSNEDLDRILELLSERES

Measured: binding result

B1: 39-bp parS (dsDNA)
DNA 1: CAGTTGAATCAGAATGTTCCACGTGAAACAAAGAAAAAA
DNA 2: TTTTTTCTTTGTTTCACGTGGAACATTCTGATTCAACTG
binds: BsSpo0J L60E | BsSpo0J R39A | BsSpo0J Q61A | BsSpo0J E52R | BsSpo0J WT | BsSpo0J Q140A | BsSpo0J M104A | BsSpo0J H57E | BsSpo0J R80A
